Test results from PMC10687032, “Phosphorylation of USP27X by GSK3β maintains the stability and oncogenic functions of CBX2” (Cell Death & Disease, 2023).

T1: His-Myc-CBX2 (human, UniProt Q14781 1-532)
T1 construct: Chromobox protein homolog 2 (CBX2), human; the His-Myc construct is named only in the pull-down methods; the cloning of a His-Myc construct is not described; also called Purified Myc-CBX2
T1 sequence (looked up): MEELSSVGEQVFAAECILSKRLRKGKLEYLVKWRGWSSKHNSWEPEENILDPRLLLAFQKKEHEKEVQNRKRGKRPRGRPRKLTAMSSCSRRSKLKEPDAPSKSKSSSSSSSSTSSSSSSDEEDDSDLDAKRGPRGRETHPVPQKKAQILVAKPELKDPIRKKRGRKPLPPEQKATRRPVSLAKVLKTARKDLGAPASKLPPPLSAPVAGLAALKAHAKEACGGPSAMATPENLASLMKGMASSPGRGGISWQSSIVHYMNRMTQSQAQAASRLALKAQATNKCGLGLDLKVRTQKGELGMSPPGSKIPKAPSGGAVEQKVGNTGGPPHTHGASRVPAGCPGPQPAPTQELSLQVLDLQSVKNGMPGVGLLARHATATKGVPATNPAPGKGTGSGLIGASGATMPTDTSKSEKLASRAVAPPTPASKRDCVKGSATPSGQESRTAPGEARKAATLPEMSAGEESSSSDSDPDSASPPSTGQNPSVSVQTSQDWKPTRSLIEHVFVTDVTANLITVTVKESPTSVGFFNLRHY


Legend:
CBX2 = CBX2 (UniProt Q14781); test: co-IP with anti-Myc, anti-HA immunoblot; conditions: reference: HA-USP27X wild type; sites S135
His-Myc-CBX2 = target: T1, His-Myc-CBX2; test: pull-down; GST-USP27X bound to glutathione-Sepharose 4B beads incubated with His-Myc-CBX2 for 2 h at 4 °C; retained proteins immunoblotted; conditions: both partners purified

Row | Molecule | binding against the reference (CBX2) | binding result (His-Myc-CBX2)
1 | USP27X (from UniProt A6NNY8) HA-USP27X S135A | weaker | 
2 | GST-USP27X (enzyme, human, UniProt A6NNY8 1-438, looked up, ubiquitin-specific peptidase 27X (USP27X), human cDNA cloned into pGEX-1λT (plasmids section) or pGEX-4T-1 (pull-down section); also called GST-USP27X-WT; Recombinant GST-USP27X; source: E. coli BL21, purified (GST beads)) MCKDYVYDKDIEQIAKEEQGEALKLQASTSTEVSHQQCSVPGLGEKFPTWETTKPELELLGHNPRRRRITSSFTIGLRGLINLGNTCFMNCIVQALTHTPILRDFFLSDRHRCEMPSPELCLVCEMSSLFRELYSGNPSPHVPYKLLHLVWIHARHLAGYRQQDAHEFLIAALDVLHRHCKGDDVGKAANNPNHCNCIIDQIFTGGLQSDVTCQACHGVSTTIDPCWDISLDLPGSCTSFWPMSPGRESSVNGESHIPGITTLTDCLRRFTRPEHLGSSAKIKCGSCQSYQESTKQLTMNKLPVVACFHFKRFEHSAKQRRKITTYISFPLELDMTPFMASSKESRMNGQLQLPTNSGNNENKYSLFAVVNHQGTLESGHYTSFIRHHKDQWFKCDDAVITKASIKDVLDSEGYLLFYHKQVLEHESEKVKEMNTQAY |  | binds
